According to the supplement of paper PMC12667976:

B1: library; numbered along this chain (parent)
chain: MATDAALRRLLRLHRTEIAVAVDSAFPLLHALADHDVVPEDKFQETLHLKEKEGCPQAFHALLSWLLTQDSTAILDFWRVLFKDYNLERYGRLQPILDSFPKDVDLSQPRKGRKPPAVPKALVPPPRLPTKRKASEEARAAAPAALTPRGTASPGSQLKAKPPKKPESSAEQQRLPLGNGIQTMSASVQRAVAMSSGDVPGARGAVEGILIQQVFESGGSKKCIQVGGEFYTPSKFEDSGSGKNKARSSSGPKPLVRAKGAQGAAPGGGEARLGQQGSVPAPLALPSDPQLHQKNEDECAVCRDGGELICCDGCPRAFHLACLSPPLREIPSGTWRCSSCLQATVQEVQPRAEEPRPQEPPVETPLPPGLRSAGEEVRGPPGEPLAGMDTTLVYKHLPAPPSAAPLPGLDSSALHPLLCVGPEGQQNLAPGARCGVCGDGTDVLRCTHCAAAFHWRCHFPAGTSRPGTGLRCRSCSGDVTPAPVEGVLAPSPARLAPGPAKDDTASHEPALHRDDLESLLSEHTFDGILQWAIQSMARPAAPFPS

Variants of: B1
Test: AIRE transcriptional activation functional score (insulin promoter-GFP; nonsense median 0, synonymous median 1) (normalised score); higher = higher AIRE activity (more reporter activation)
Conditions: with insulin promoter-GFP reporter in HEK293
Procedure: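 Deep mutational scan of full-length human AIRE (codon-optimized cDNA, DT-POPCode NNN libraries over three regions) integrated at a Bxb1 landing pad in HEK293 cells carrying an insulin core promoter-GFP reporter at a Flp-In site. Cells were sorted for the top 10% GFP about 14 days after transfection. Variant frequency log-ratios (select vs non-select, TileSeq) were rescaled so that the nonsense median is 0 and the synonymous median is 1, then averaged over biological replicates.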

AIRE transcriptional activation functional score, by site and new letter:
R303: I 1.32, P 1.09, K 1.13, A 0.349, L 1.12, C 1.23, N 1.04, S 0.997, E 0.933, F 1.47, M 1.28, V 1.16, H 1.12, T 1.36, G 1.34, Y 0.774, D 0.544, Q 1.23, W 1.02
C310: V 0.912, F 0.908, R 0.907, D 0.991, K 0.681, Q 0.509, T 0.959, W 0.433, M 0.814, P 0.625, I 0.643, E 1.29, H 0.624, Y 0.993, N 0.714, G 0.824, S 0.768, A 0.821, L 0.935
V301: T 0.963, P 0.662, N 0.743, M 0.84, L 1.01, C 1.08, F 1.29, Y 1.14, D 0.644, I 0.84, A 1.01, R 1.34, K 1.09, W 2, H 1.56, S 1, Q 1.08, E 1.05, G 1.08
G313: W 1.27, R 0.762, E 0.654, C 1.51, P 0.756, H 1.5, Q 1, Y 1.16, M -0.04, I 0.979, L 1.28, K 0.717, T 0.676, V 1.22, N 0.241, D 1.39, S 0.974, F 1.13, A 0.829
E296: N 1.28, K 0.642, M 1.14, S 0.991, R 0.658, I 0.711, Q 1.06, L 0.781, Y 0.486, V 0.556, T 0.948, W 1.44, P 0.799
C314: A 0.983
G306: F 0.459, K 0.811, S 0.862, C 0.922, Q 1.14, I 0.377, T 1.15, Y 0.924, W 0.744, E 1.14, P 0.361, V 0.712, D 0.954, N 1.18, A 0.976, L 0.492, H 1.11, R 0.689, M 0.451
C299: N 0.262, L 0.726, M 0.737, E 0.32, W 0.647, A 0.615, P 0.634, H 0.488, G 0.55, K 0.668, V 0.501, Q 0.508, T 0.711, S 0.703, D 0.505, R 0.523, Y 0.416, I 0.55, F 0.664
D312: M 0.226, G 0.92, H 1, Q 1.17, L 0.872, C 1.09, E 0.977, F 0.823, W 0.939, V 0.485, P 0.626, Y 0.942, R 0.976, N 0.702, S 0.764, I 0.684, A 1.19, T 0.953, K 0.281
E298: V 0.91, Y 0.785, L 0.839, S 0.818, D 0.987, H -2.02, Q 1.15, C -0.0529, K 1.07, W 1.13, I 1.03, A 0.0161, P 0.696, N 1.56, R 0.634, F 0.727, M 0.204, G 1.13, T 0.228
C302: Y 0.467
